In article PMC9765476, “Malic Enzyme, not Malate Dehydrogenase, Mainly Oxidizes Malate That Originates from the Tricarboxylic Acid Cycle in Cyanobacteria” (mBio, 2022):

Experiments:
Test in all cases: purified protein
purified protein [1] = substrate: O=C(O)C[C@H](O)C(=O)O; settings: malate oxidation
purified protein [2] = substrate: CC(=O)C(=O)O; assay type: biochemical, Nostoc sp. PCC 7120 = FACHB-418; settings: 0.1 mM NADPH, 100 mM NH4Cl, 0.1 mM MnCl2, 50 mM KHCO3, pH 8.8, 52°C, reductive reaction
purified protein [3] = substrate: NC(=O)C1=CN([C@@H]2O[C@H](COP(=O)(O)OP(=O)(O)OC[C@H]3O[C@@H](n4cnc5c(N)ncnc54)[C@H](OP(=O)(O)O)[C@@H]3O)[C@@H](O)[C@H]2O)C=CC1; assay type: biochemical, Nostoc sp. PCC 7120 = FACHB-418; settings: 30 mM pyruvate, 100 mM NH4Cl, 0.1 mM MnCl2, 50 mM KHCO3, pH 8.8, 52°C, reductive reaction, varied: cofactor
purified protein [4] = substrate: NC(=O)c1ccc[n+]([C@@H]2O[C@H](COP(=O)(O)OP(=O)(O)OC[C@H]3O[C@@H](n4cnc5c(N)ncnc54)[C@H](OP(=O)(O)O)[C@@H]3O)[C@@H](O)[C@H]2O)c1; assay type: biochemical, Nostoc sp. PCC 7120 = FACHB-418; settings: 3 mM malate, 100 mM NH4Cl, 0.1 mM MnCl2, pH 8.8, 52°C, malate oxidation, varied: cofactor
purified protein [5] = substrate: NC(=O)c1ccc[n+]([C@@H]2O[C@H](COP(=O)(O)OP(=O)(O)OC[C@H]3O[C@@H](n4cnc5c(N)ncnc54)[C@H](OP(=O)(O)O)[C@@H]3O)[C@@H](O)[C@H]2O)c1; assay type: biochemical, Synechocystis sp. PCC 6803; settings: 3 mM malate, 100 mM NH4Cl, 0.5 mM MnCl2, pH 8.3, 50°C, malate oxidation, varied: cofactor
purified protein [6] = substrate: NC(=O)C1=CN([C@@H]2O[C@H](COP(=O)(O)OP(=O)(O)OC[C@H]3O[C@@H](n4cnc5c(N)ncnc54)[C@H](O)[C@@H]3O)[C@@H](O)[C@H]2O)C=CC1; assay type: biochemical, Nostoc sp. PCC 7120 = FACHB-418; settings: 0.1 mM oxaloacetate, pH 9.0, 50°C, reductive reaction, varied: cofactor
purified protein [7] = substrate: NC(=O)c1ccc[n+]([C@@H]2O[C@H](COP(=O)(O)OP(=O)(O)OC[C@H]3O[C@@H](n4cnc5c(N)ncnc54)[C@H](O)[C@@H]3O)[C@@H](O)[C@H]2O)c1; assay type: biochemical, Nostoc sp. PCC 7120 = FACHB-418; settings: 5 mM malate, pH 9.0, 50°C, malate oxidation, varied: cofactor
purified protein [8] = substrate: O=C(O)CC(=O)C(=O)O; assay type: biochemical, Nostoc sp. PCC 7120 = FACHB-418; settings: 0.1 mM NADH, pH 9.0, 50°C, reductive reaction
purified protein [9] = substrate: NC(=O)C1=CN([C@@H]2O[C@H](COP(=O)(O)OP(=O)(O)OC[C@H]3O[C@@H](n4cnc5c(N)ncnc54)[C@H](O)[C@@H]3O)[C@@H](O)[C@H]2O)C=CC1; assay type: biochemical, Synechocystis sp. PCC 6803; settings: 0.5 mM oxaloacetate, pH 8.0, 50°C, reductive reaction, varied: cofactor
purified protein [10] = substrate: NC(=O)c1ccc[n+]([C@@H]2O[C@H](COP(=O)(O)OP(=O)(O)OC[C@H]3O[C@@H](n4cnc5c(N)ncnc54)[C@H](O)[C@@H]3O)[C@@H](O)[C@H]2O)c1; assay type: biochemical, Synechocystis sp. PCC 6803; settings: 4 mM malate, pH 8.0, 50°C, malate oxidation, varied: cofactor
purified protein [11] = substrate: O=C(O)CC(=O)C(=O)O; assay type: biochemical, Synechocystis sp. PCC 6803; settings: 0.1 mM NADH, pH 8.0, 50°C, reductive reaction
purified protein [12] = substrate: NC(=O)C1=CN([C@@H]2O[C@H](COP(=O)(O)OP(=O)(O)OC[C@H]3O[C@@H](n4cnc5c(N)ncnc54)[C@H](O)[C@@H]3O)[C@@H](O)[C@H]2O)C=CC1; assay type: biochemical, Limnospira platensis; settings: 0.5 mM oxaloacetate, pH 8.5, 50°C, reductive reaction, varied: cofactor
purified protein [13] = substrate: NC(=O)c1ccc[n+]([C@@H]2O[C@H](COP(=O)(O)OP(=O)(O)OC[C@H]3O[C@@H](n4cnc5c(N)ncnc54)[C@H](O)[C@@H]3O)[C@@H](O)[C@H]2O)c1; assay type: biochemical, Limnospira platensis; settings: 1 mM malate, pH 8.5, 50°C, malate oxidation, varied: cofactor
purified protein [14] = substrate: O=C(O)CC(=O)C(=O)O; assay type: biochemical, Limnospira platensis; settings: 0.1 mM NADH, pH 8.5, 50°C, reductive reaction
[15] = 0.5 mM NADP+, 100 mM NH4Cl, 0.1 mM MnCl2, pH 8.8, 52°C, pH 8.8, 52.0 °C
[16] = 0.5 mM NADP+, 100 mM NH4Cl, 0.5 mM MnCl2, pH 8.3, 50°C, pH 8.3, 50.0 °C
[17] = 8 mM NAD+, pH 9.0, 50°C, pH 9.0, 50.0 °C
[18] = 8 mM NAD+, pH 8.0, 50°C, pH 8.0, 50.0 °C
[19] = 8 mM NAD+, pH 8.5, 50°C, pH 8.5, 50.0 °C

B1: NoME (Nostoc sp. PCC 7120 = FACHB-418) (protein)
chain: MADLTPNSSFSVTLRLQIPNRVGMLASITQAIASSGGNLGQIDLIEQTRQVSLRDLTVDAASTEHAETIVQAVKAIPDIKLVSVYDRTFNLHRGGKISITSRIPLKSVSDLAMAYTPGVGRVCTAIAQDPSQVYNLTIKQNTVAIVTDGSAVLGLGNLGPHAALPVMEGKAMLFKEFAGLDAFPICLATQDTEEIIQAVKNIAPVFGGVNLEDIAAPRCFEIEKRLRDELDIPVFHDDQHGTAIVTLAALFNSLKLVQKSLADIRIVINGAGAAGVAIARLLRKAGAEKIWMCDSKGIISTTRTDLNEEKQEFAVKAQGTLAGAVQGADVFIGVSAPGVLTPEMVKSMAKDAIVFAMANPIPEIQPELISKDVAVIATGRSDYPNQINNVLAFPGVFRGALDCRAQTITTTMYLEAASAIASLVNPSDLSREHIIPSVFDERVVTAVAAAVQRAAREEGIARG
notes: full length, GST-tagged (pGEX6P-1), tag kept, E. coli BL21(DE3)
Purified protein [1]; [15]
  K0.5: 0.41 ± 0.02 mM
  kcat: 30.3 s⁻¹
  kcat/Km: 75000 M⁻¹ s⁻¹
Purified protein [2]
  K0.5: 6.55 ± 0.38 mM
  kcat: 0.79 ± 0.03 s⁻¹
  kcat/Km: 120 ± 3 M⁻¹ s⁻¹
Purified protein [3]
  K0.5: 0.0074 ± 0.001 mM
  kcat: 0.85 ± 0.03 s⁻¹
  kcat/Km: 116000 ± 10000 M⁻¹ s⁻¹
Purified protein [4]
  K0.5: 0.014 ± 0.004 mM
  kcat: 33.4 ± 3.2 s⁻¹
  kcat/Km: 2.53e+06 ± 436000 M⁻¹ s⁻¹

B2: SyME (Synechocystis sp. PCC 6803 substr. Kazusa) (protein)
chain: MVSLTPNPSYSVSLLLELPNHAGTLASVTQAIADAGGSFGQISLIESNLKLTRREIAVDASSSEHAEKIIGAVKALDNVKLLKVSDRTFDLHRQGKISVVSRIPLTSQSDLAMAYTPGVGRICRAIAEDPEKVYSLTIKSNTVAVVTDGSAVLGLGNLGPEAALPVMEGKAMLFKEFAQLDAFPICLDTQDTEEIIRTVKAIAPVFGGVNLEDIAAPRCFEIEARLKKELNIPVFHDDQHGTAIVTLAALLNALKFVGKAMAAVRIVINGAGAAGLAIAELLKESGATDIWICDSKGIVGKHRTDLNSKKQSFAVDAEGTLADAMAGADVFLGVSAPGVVTKEMVQSMAKDPIVFAMANPIPEIQPELIQEDAAVIATGRSDYPNQINNVLAFPGVFRGAIDCRASIITTTMCIEAAKAIASLVHSNTLDSEHIIPSVFDNRVATTVASAVQLAARNEGVAGQ
notes: full length, His-tagged (pQE80L), E. coli BL21(DE3), synthesized gene
Purified protein [1]; [16]
  K0.5: 0.46 ± 0.06 mM
  kcat: 77.2 s⁻¹
  kcat/Km: 169000 M⁻¹ s⁻¹
Purified protein [5]
  K0.5: 0.015 ± 0.001 mM
  kcat: 55.7 ± 3.3 s⁻¹
  kcat/Km: 3.689e+06 ± 23000 M⁻¹ s⁻¹

B3: NoMDH (Nostoc sp. PCC 7120 = FACHB-418) (protein)
chain: MFSSPDSPILHCLPRVAIIGAGRVGSTLAQRIAEKNLADVVLLDIVEGIPQGLALDLLEARGIELHNRQIIGTNNYADTSGSQIVVITAGFPRKPGMSRDDLLRTNAKIVIEAAKQAIAYSPYAIFIVVTNPLDVMTYLAWEATGLPRNRIMGMAGVLDSARFETFIALELGVLPADVKAMVLGSHGDLMVPLSRYATVNGIPITQLLDAVTIERLVERTRNGGAEIVELMQTGGAFFAPASATSLMVESILLNQSRLLPVSIYLQGEYDLKDVVIGVPCRLGLNGIESVIELNLSDSEREALHISAKSVQKNIERWRSLQNS
notes: full length, GST-tagged (pGEX6P-1), tag kept, E. coli BL21(DE3), 10°C expression
Purified protein [1]; [17]
  K0.5: 1.88 ± 0.56 mM
  kcat: 3.5 s⁻¹
  kcat/Km: 2000 M⁻¹ s⁻¹
Purified protein [6]
  K0.5: 0.0093 ± 0.0001 mM
  kcat: 1.3 ± 0.1 s⁻¹
  kcat/Km: 142000 ± 8000 M⁻¹ s⁻¹
Purified protein [7]
  K0.5: 8.45 ± 1.95 mM
  kcat: 6.3 ± 0.5 s⁻¹
  kcat/Km: 770 ± 100 M⁻¹ s⁻¹
Purified protein [8]
  K0.5: 0.026 ± 0.002 mM
  kcat: 1.1 ± 0.03 s⁻¹
  kcat/Km: 42000 ± 2000 M⁻¹ s⁻¹

B4: SyMDH (Synechocystis sp. PCC 6803 substr. Kazusa) (protein)
chain: MNILEYAPIACQSWQVTVVGAGNVGRTLAQRLVQQNVANVVLLDIVPGLPQGIALDLMAAQSVEEYDSKIIGTNEYEATAGSDVVVITAGLPRRPGMSRDDLLGKNANIVAQGAREALRYSPNAILIVVTNPLDVMTYLAWKVTGLPSQRVMGMAGVLDSARLKAFIAMKLGACPSDINTLVLGGHGDLMLPLPRYCTVSGVPITELIPPQTIEELVERTRNGGAEIAALLQTGTAYYAPASSAAVMVESILRNQSRILPAATYLDGAYGLKDIFLGVPCRLGCRGVEDILEVQLTPEEKAALHLSAEAVRLNIDVALAMVSDG
notes: as for B2
Purified protein [1]; [18]
  K0.5: 1.61 ± 0.37 mM
  kcat: 1 s⁻¹
  kcat/Km: 640 M⁻¹ s⁻¹
Purified protein [9]
  K0.5: 0.018 ± 0.002 mM
  kcat: 6.6 ± 0.5 s⁻¹
  kcat/Km: 364000 ± 19000 M⁻¹ s⁻¹
Purified protein [10]
  K0.5: 1.34 ± 0.30 mM
  kcat: 1.8 ± 0.1 s⁻¹
  kcat/Km: 1400 ± 200 M⁻¹ s⁻¹
Purified protein [11]
  K0.5: 0.11 ± 0.002 mM
  kcat: 4 ± 0.04 s⁻¹
  kcat/Km: 36000 ± 1000 M⁻¹ s⁻¹

B5: ArMDH (Limnospira platensis NIES-46) (protein)
chain: MQMASSMFFPPSCHPTQVSIIGAGKVGGTLAQRIAESNVAHVVLLDVVEGLPQGVALDLMQAGSVEGHDRKILGTNDYADTAGSDVVVITAGRPRTPGMNRNDLIETNAPIVARAVTNAIASSPNAVIIIVTNPLDVMTYIAWQVSQIEPFRIMGMAGVLDSARFQAFIATELNVSVADVNATVMGSHGDLMVPLPRYSTVNGIPITELMDTETINRLIARTRNGGAEIVGLLKTGGAYYAPASSVRTMVESILLNRRRLLPTSAYLKGEYGMKDIFLGVPCWLGCRGVEAVLELNLTDNEREALNSCAQSVREGIEKADAVLAATAAV
notes: as for B1
Purified protein [1]; [19]
  K0.5: 0.034 ± 0.002 mM
  kcat: 0.25 s⁻¹
  kcat/Km: 7300 M⁻¹ s⁻¹
Purified protein [12]
  K0.5: 0.0085 ± 0.0025 mM
  kcat: 1.7 ± 0.1 s⁻¹
  kcat/Km: 214000 ± 50000 M⁻¹ s⁻¹
Purified protein [13]
  K0.5: 0.30 ± 0.02 mM
  kcat: 0.5 ± 0.01 s⁻¹
  kcat/Km: 1700 ± 100 M⁻¹ s⁻¹
Purified protein [14]
  K0.5: 0.041 ± 0.001 mM
  kcat: 1.4 ± 0.03 s⁻¹
  kcat/Km: 34000 ± 400 M⁻¹ s⁻¹
